Key:
[1] = molecular target: T1, human IL-28 receptor on transfected 293 HEK cells (IL-28 receptor alpha subunit with endogenous CRF2-4) (human); assay: cell-based or functional assay
[2] = molecular target: T1, human IL-28 receptor on transfected 293 …; assay: cell-based or functional assay; remark: listed apart in the source

T1 sequence (Q8IU57 whole entry, chain 1 of 2): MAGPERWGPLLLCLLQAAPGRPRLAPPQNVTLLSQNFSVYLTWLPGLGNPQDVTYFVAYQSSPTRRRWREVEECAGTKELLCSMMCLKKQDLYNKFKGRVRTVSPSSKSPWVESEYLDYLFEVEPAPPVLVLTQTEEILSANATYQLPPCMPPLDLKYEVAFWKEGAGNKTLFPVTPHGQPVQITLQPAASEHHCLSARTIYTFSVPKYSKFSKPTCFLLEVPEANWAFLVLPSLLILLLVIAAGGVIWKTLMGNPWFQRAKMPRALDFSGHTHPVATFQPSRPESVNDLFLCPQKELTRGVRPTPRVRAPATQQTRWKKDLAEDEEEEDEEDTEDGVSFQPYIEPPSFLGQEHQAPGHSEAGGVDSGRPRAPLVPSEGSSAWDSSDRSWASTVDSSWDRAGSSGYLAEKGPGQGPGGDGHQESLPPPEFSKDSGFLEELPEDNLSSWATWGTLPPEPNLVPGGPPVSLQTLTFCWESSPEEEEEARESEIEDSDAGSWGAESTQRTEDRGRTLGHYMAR
T1 sequence (Q08334 whole entry, chain 2 of 2, further chain): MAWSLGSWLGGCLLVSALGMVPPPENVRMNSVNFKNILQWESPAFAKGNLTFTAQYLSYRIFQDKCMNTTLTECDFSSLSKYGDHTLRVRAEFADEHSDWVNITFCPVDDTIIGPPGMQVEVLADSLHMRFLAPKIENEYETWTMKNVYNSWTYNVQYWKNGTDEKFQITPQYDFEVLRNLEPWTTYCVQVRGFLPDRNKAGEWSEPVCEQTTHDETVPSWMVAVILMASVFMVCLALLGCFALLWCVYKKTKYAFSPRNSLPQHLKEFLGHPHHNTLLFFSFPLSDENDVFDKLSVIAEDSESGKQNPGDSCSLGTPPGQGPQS

B1: zcyto20 (IL-28A), human (ligand)
chain: VPVARLHGALPDARGCHIAQFKSLSPQELQAFKRAKDALEESLLLKDCRCHSRLFPRTWDLRQLQVRERPMALEAELALTLKVLEATADTDPALVDVLDQPLHTLHHILSQFRACIQPQPTAGPRTRGRLHHWLYRLQEAPKKESPGCLEASVTFNLFRLLTRDLNCVASGDLCV
Question: For B1, which “ISRE Signaling of Transfected 293 Cells Following Class II Cytokine Stimulation (Fold Induction), ISRE-Luc./IL-28R, IL-28A 125 ng/ml” value [1] is on record?
Answer: Its value is 125 fold induction.

B2: IL-29 (SEQ ID NO: 4) (ligand)
chain: GPVPTSKPTTTGKGCHIGRFKSLSPQELASFKKARDALEESLKLKNWSCSSPVFPGNWDLRLLQVRERPVALEAELALTLKVLEAAAGPALEDVLDQPLHTLHHILSQLQACIQPQPTAGPRPRGRLHHWLHRLQEAPKKESAGCLEASVTFNLFRLLTRDLKYVADGNLCLRTSTHPEST
Question: For B2, which “ISRE Signaling of Transfected 293 Cells Following Class II Cytokine Stimulation (Fold Induction), ISRE-Luc./IL-28R, IL-29 125 ng/ml” value [1] is on record?
Answer: The value was 108 fold induction.

B3: C1-C3 form (C16-C113) of wild-type E. coli-derived IL-29 (ligand)
chain: MGPVPTSKPTTTGKGCHIGRFKSLSPQELASFKKARDALEESLKLKNWSCSSPVFPGNWDLRLLQVRERPVALEAELALTLKVLEAAAGPALEDVLDQPLHTLHHILSQLQACIQPQPTAGPRPRGRLHHWLHRLQEAPKKESAGCLEASVTFNLFRLLTRDLKYVADGNLCLRTSTHPEST
Question: For B3, which “bioactivity in an ISRE assay” value [2] is on record?
Answer: Its value is 30 fold higher than the C112-C171 form.
